# In the Human Domainome abundance scans (Beltran et al. 2025):
# ± gives the uncertainty stated by the source.
# B1: FERM and PDZ domain-containing protein 4, residues 75 to 154; numbered along this chain, Q14CM0 (parent)
# chain: APRKVEMRRDPVLGFGFVAGSEKPVVVRSVTPGGPSEGKLIPGDQIVMINDEPVSAAPRERVIDLVRSCKESILLTVIQP
# Variants of: B1
# Assay: abundance fitness (aPCA) (normalised: wild type 0, dead -1); higher = more abundant; growth selection in yeast, the domain comes from the species named
# Conditions: Homo sapiens
row,Variant,abundance fitness
1,P80Y,-0.356 ± 0.07
2,P80L,-0.387 ± 0.042
3,P80W,-0.403 ± 0.064
4,P80M,-0.181 ± 0.048
5,P80Q,0 ± 0.05
6,P80S,-0.066 ± 0.028
7,P80N,-0.058 ± 0.085
8,P80V,-0.23 ± 0.039
9,P80R,-0.146 ± 0.04
10,P80T,-0.066 ± 0.033
